{"source": "paper PMC12828769", "target": "Human Angiotensin-converting enzyme 2 (ACE2) (human)", "test": "MST; Monolith NT.115, standard glass capillaries; ACE2 labelled with NT-647 (NHS ester); ACE2 serially diluted across 16 tubes in 10 mM phosphate buffer pH 7.4, mixed 1:1 with RBDs or RBDdopa's, 15 min at RT; 40-60% MST power; apparent KD", "data": [{"substance": "Native SARS-CoV-2 RBD (Arg319-Phe541) without any mutation (domain or fragment; other documents disagree on this pair)", "values": [{"measurement": "Kd", "result": 5.4, "unit": "µM"}]}]}
